The assay has as its target T1, mouse RAG1 (aa 265-1040) E962Q, His6-MBP fusion (mouse, UniProt P15919 265-1040, E962Q).
T1 sequence (looked up): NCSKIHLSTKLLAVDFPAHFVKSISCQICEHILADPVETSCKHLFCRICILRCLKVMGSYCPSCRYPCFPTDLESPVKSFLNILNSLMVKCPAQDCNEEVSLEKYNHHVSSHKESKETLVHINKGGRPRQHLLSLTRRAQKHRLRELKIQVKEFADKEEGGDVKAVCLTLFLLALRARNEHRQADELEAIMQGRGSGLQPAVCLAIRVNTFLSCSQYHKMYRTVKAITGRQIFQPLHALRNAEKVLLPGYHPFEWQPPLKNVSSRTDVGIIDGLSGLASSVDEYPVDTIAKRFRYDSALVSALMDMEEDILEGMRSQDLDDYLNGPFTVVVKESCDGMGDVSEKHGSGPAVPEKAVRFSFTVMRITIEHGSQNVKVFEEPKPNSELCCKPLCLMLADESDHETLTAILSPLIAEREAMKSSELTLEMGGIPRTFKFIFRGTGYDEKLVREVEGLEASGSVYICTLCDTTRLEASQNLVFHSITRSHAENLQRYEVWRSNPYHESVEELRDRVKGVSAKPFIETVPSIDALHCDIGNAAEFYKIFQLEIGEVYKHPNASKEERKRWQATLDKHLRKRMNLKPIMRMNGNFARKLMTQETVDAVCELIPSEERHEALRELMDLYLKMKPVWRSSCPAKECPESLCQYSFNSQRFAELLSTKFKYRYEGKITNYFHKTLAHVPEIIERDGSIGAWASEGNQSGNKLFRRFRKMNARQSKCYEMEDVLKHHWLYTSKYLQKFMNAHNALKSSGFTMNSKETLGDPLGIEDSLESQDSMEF
Description: cryo-EM structure.

B1: mouse RAG2 (aa 1-520) T490A, His6-MBP fusion (domain or fragment, UniProt P21784 1-520, looked up)
chain: MSLQMVTVGHNIALIQPGFSLMNFDGQVFFFGQKGWPKRSCPTGVFHFDIKQNHLKLKPAIFSKDSCYLPPLRYPATCSYKGSIDSDKHQYIIHGGKTPNNELSDKIYIMSVACKNNKKVTFRCTEKDLVGDVPEPRYGHSIDVVYSRGKSMGVLFGGRSYMPSTQRTTEKWNSVADCLPHVFLIDFEFGCATSYILPELQDGLSFHVSIARNDTVYILGGHSLASNIRPANLYRIRVDLPLGTPAVNCTVLPGGISVSSAILTQTNNDEFVIVGGYQLENQKRMVCSLVSLGDNTIEISEMETPDWTSDIKHSKIWFGSNMGNGTIFLGIPGDNKQAMSEAFYFYTLRCSEEDLSEDQKIVSNSQTSTEDPGDSTPFEDSEEFCFSAEATSFDGDDEFDTYNEDDEDDESVTGYWITCCPTCDVDINTWVPFYSTELNKPAMIYCSHGDGHWVHAQCMDLEERTLIHLSEGSNKYYCNEHVQIARALQAPKRNPPLQKPPMKSLHKKGSGKVLTPAKKS
With B1, the binding result was “binds”.

The values are drawn from PMC8291384 (Nature structural & molecular biology, 2020).
